Measurements as given in PMC8113463, “Structural visualization of transcription activated by a multidrug-sensing MerR family regulator” (Nature Communications, 2021).

What was measured:
EcmrR (full length) = target: T1, EcmrR (full length) (Escherichia coli, UniProt A0A8I3B051); assay type: binding; conditions: second site (site II) in CTD; TPSb+ in site I; 8 mM CHAPSO added before grid preparation; density of the sterol head, relevance of the site left open by the authors
T1 construct: E. coli BL21 Star (DE3); codon-optimised gene; homodimer on promoter DNA with E. coli RNAP-sigma70

[1] = target: EcmrR (multidrug-sensing MerR family transcriptional regulator of Escherichia coli), full length, wild type (Escherichia coli); experiment: cryo-EM structure
EcmrR CTD = target: T2, EcmrR CTD (Escherichia coli, UniProt A0A8I3B051); experiment: X-ray crystal structure, […] Å; assay type: binding; conditions: sites I and II both occupied; detergent of the crystallisation solution, 5 mM
T2 construct: E. coli BL21 Star (DE3)

EcmrR [2] = target: T3, EcmrR (UniProt PDB:6XLK_3 1-268); experiment: cryo-EM (focused map of spacer DNA subcomplex within RPo); TPSb+, CHAPSO; RNAP present in the particle; Complex assembly: core RNAP:σ70:EcmrR-promoter 1:1.4:2, 5 mM MgCl2, 5 mM TPSb+ Br-, 23 °C 3 h, then (initial transcribing complexes) rNTPs 37 °C 10 min; SEC purified; DNA in 20 mM Tris-HCl pH 7.5, 100 mM KCl, 1 mM TCEP; final SEC buffer not given; conditions: protein: recombinant; tags: expressed as N-terminal His6-Smt3 fusion; chain copies: 2; pre-melted bubble from non-complementary strand segments, blunt ends
T3 sequence: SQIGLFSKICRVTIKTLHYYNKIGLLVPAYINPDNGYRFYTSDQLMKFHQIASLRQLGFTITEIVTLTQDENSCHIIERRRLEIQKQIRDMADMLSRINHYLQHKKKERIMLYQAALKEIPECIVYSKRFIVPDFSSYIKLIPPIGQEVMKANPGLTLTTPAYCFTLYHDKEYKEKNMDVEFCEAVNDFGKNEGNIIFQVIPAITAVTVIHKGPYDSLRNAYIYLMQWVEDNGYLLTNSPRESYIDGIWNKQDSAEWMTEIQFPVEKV

EcmrR [3] = target: T3, EcmrR; experiment: cryo-EM (focused map of spacer DNA subcomplex within RPitc-4nt); TPSb+, CHAPSO; RNAP present in the particle; Complex assembly: core RNAP:σ70:EcmrR-promoter 1:1.4:2, 5 mM MgCl2, 5 mM TPSb+ Br-, 23 °C 3 h, then (initial transcribing complexes) rNTPs 37 °C 10 min; SEC purified; DNA in 20 mM Tris-HCl pH 7.5, 100 mM KCl, 1 mM TCEP; final SEC buffer not given; conditions: protein: recombinant; tags: expressed as N-terminal His6-Smt3 fusion; chain copies: 2; blunt

For `C[C@H](CCC(=O)NCCC[N+](C)(C)CC(O)CS(=O)(=O)[O-])[C@H]1CC[C@H]2[C@@H]3[C@H](O)C[C@@H]4C[C@H](O)CC[C@]4(C)[C@H]3C[C@H](O)[C@]12C` (some centres unmarked) [CHAPSO, 3-([3-cholamidopropyl]dimethylammonio)-2-hydroxy-1-propanesulfonate], the “cryo-EM structure of the complex” value (EcmrR (full length)) was “The density likely corresponds to the tetracyclic sterol head of CHAPSO”.

In the case of “EcmrR (multidrug-sensing MerR family transcriptional regulator of Escherichia coli), full length, wild type (natural protein)”, the stoichiometry N [1] is reported as 2.

`CCCCCCCCCCCCCCCC[N+](C)(C)C` [CTA^+] was tested, and the “X-ray crystal structure, 1.4 Å” value (EcmrR CTD) was “wherein both sites are occupied by cetyltrimethylammonium cation (CTA^+)”.

B1: 54-bp heteroduplex promoter scaffold, 19-bp spacer (NT strand DNA-1 / T strand DNA-1) (dsDNA)
DNA 1: GCCTTGACCCTCCCCTAAGGGGAGGGTTTAGATTGTGTGCAGTCTGACGCGGCG
DNA 2: CGCCGCGTCAGACTCGTAGGAATCTAAACCCTCCCCTTAGGGGAGGGTCAAGGC
B1: binds (EcmrR [2]).

B2: 54-bp fully complementary promoter scaffold, 19-bp spacer (NT strand DNA-1 / T strand DNA-2) (dsDNA)
DNA 1: GCCTTGACCCTCCCCTAAGGGGAGGGTTTAGATTGTGTGCAGTCTGACGCGGCG
DNA 2: CGCCGCGTCAGACTGCACACAATCTAAACCCTCCCCTTAGGGGAGGGTCAAGGC
B2: binds (EcmrR [3]).
